Results on two molecules are retold here after article doi:10.1101/2021.09.06.459192 (bioRxiv, 2021).

The experiment concerns the target Rrp5 full length, recombinant (Rrp5_FL) (S. cerevisiae, UniProt Q05022 1-1729). The experiment in a line: pull-down.

Sequence of Rrp5 full length, recombinant (Rrp5_FL) (Q05022 whole entry): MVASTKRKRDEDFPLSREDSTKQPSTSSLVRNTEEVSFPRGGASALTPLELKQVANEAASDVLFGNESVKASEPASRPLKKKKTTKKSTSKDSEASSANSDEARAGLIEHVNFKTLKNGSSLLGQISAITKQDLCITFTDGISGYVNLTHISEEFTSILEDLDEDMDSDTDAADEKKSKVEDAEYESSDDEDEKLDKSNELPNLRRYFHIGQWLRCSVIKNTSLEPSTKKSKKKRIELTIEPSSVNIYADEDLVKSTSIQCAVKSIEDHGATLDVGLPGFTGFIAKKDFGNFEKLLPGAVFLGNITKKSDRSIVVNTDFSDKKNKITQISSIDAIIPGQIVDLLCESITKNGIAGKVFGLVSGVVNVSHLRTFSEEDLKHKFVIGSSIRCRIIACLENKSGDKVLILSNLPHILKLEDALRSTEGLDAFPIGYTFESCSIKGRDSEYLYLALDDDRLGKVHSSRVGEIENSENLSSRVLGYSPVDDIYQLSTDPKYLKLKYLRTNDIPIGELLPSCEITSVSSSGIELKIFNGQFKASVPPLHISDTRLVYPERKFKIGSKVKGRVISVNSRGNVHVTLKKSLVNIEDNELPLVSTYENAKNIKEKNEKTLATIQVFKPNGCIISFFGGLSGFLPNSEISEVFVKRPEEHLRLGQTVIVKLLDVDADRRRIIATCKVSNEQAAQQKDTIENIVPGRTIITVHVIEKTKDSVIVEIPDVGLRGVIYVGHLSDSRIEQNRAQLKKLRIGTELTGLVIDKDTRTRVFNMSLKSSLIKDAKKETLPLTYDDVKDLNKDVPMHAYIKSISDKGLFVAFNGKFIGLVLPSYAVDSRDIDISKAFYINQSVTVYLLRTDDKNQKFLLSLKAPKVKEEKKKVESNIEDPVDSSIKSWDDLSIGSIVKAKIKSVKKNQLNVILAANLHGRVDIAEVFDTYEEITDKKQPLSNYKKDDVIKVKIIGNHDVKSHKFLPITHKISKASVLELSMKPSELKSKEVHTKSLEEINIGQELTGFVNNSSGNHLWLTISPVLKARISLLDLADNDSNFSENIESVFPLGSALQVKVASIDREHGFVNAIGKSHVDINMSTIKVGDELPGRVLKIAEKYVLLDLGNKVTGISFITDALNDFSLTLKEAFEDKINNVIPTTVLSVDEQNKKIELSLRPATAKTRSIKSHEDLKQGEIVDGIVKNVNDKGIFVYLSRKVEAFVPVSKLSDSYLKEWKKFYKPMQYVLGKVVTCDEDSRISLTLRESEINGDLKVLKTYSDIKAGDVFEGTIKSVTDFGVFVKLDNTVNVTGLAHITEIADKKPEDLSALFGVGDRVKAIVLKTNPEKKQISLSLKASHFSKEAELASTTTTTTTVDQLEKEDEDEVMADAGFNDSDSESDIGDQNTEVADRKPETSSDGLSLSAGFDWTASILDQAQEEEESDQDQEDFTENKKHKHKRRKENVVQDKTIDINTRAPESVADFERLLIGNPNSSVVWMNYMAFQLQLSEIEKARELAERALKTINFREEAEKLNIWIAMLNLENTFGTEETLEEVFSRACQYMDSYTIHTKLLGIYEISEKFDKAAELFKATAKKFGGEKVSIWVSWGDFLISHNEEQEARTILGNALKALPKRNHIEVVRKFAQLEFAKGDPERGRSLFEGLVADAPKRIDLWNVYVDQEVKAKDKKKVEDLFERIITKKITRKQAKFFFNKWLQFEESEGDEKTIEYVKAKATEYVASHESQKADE

B1: MBP-Rrp36, recombinant (natural protein, S. cerevisiae, UniProt Q12481 1-300, looked up)
chain: MSYYFKNLKPDLNSDVEEDDGNLLESIMANKSKREIDEQESSDDELKTLSFGSLKKAETVIDEEDFKDTKPVHKKPITTTYREESFDEDEDSEDQSDEDAGFFEEDSEDETHHGQKVPKKKSKHAPVEQSSKKRVPRVRNIPGLEIPRNKRSNLYQDIRFDKSTGKALDSSIIRKRYQFLDEYREKEIDELQKLLQERKFLSKIDQGEREEMEQRLKSMKSRLQSMKNKDLEREILKEYENDMNKNNNTRYHLKKSEKRKVVQKWKFDHMKAKQREKVMERKRKKRLGKEFKQFEFHNRR
In the case of B1, the binding result is “binds”.

B2: MBP-Krr1, recombinant (natural protein, S. cerevisiae, UniProt P25586 1-316, looked up)
chain: MVSTHNRDKPWDTDDIDKWKIEEFKEEDNASGQPFAEESSFMTLFPKYRESYLKTIWNDVTRALDKHNIACVLDLVEGSMTVKTTRKTYDPAIILKARDLIKLLARSVPFPQAVKILQDDMACDVIKIGNFVTNKERFVKRRQRLVGPNGNTLKALELLTKCYILVQGNTVSAMGPFKGLKEVRRVVEDCMKNIHPIYHIKELMIKRELAKRPELANEDWSRFLPMFKKRNVARKKPKKIRNVEKKVYTPFPPAQLPRKVDLEIESGEYFLSKREKQMKKLNEQKEKQMEREIERQEERAKDFIAPEEEAYKPNQN
With B2, the binding result is listed as “binds”.
